From the supplement of paper PMC9112550, “Optimization of the antimicrobial peptide Bac7 by deep mutational scanning” (BMC Biology, 2022)

System: Escherichia coli TOP10
Test: shrunken log2 fold change of peptide-encoding DNA abundance (4.5 h post-induction vs induction); higher = less antimicrobial activity (less host growth inhibition)
Conditions: time post-induction: 4.5 h; library: site-saturation at positions 5, 18, 19, 20
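Note: peptides expressed intracellularly from a pBAD plasmid library in pooled LB shake-flask culture, induced with 0.3% L-arabinose, DNA abundance read by NGS, three biological replicates, DESeq2 with apeglm shrinkage.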

Sequence	shrunken log2 fold change
RRIRARPPRLPRPRPRPWLFPRP	0.547
RRIRARPPRLPRPRPRPWMSPRP	0.0814
RRIRARPPRLPRPRPRPWMWPRP	0.213
RRIRARPPRLPRPRPRPWPRPRP	0.992
RRIRARPPRLPRPRPRPWQCPRP	-0.197
RRIRARPPRLPRPRPRPWQGPRP	0.0405
RRIRARPPRLPRPRPRPWRDPRP	0.225
RRIRARPPRLPRPRPRPWRGPRP	0.39
RRIRARPPRLPRPRPRPWRKPRP	0.0387
RRIRARPPRLPRPRPRPWRLPRP	0.466
RRIRARPPRLPRPRPRPWTRPRP	0.27
RRIRARPPRLPRPRPRPWWAPRP	0.289
RRIRARPPRLPRPRPRPWWLPRP	-8.93e-05
RRIRARPPRLPRPRPRPWWSPRP	0.271
RRIRARPPRLPRPRPRPWYTPRP	-0.514
RRIRARPPRLPRPRPRPYADPRP	0.103
RRIRARPPRLPRPRPRPYAFPRP	-0.125
RRIRARPPRLPRPRPRPYAVPRP	-0.0829
RRIRARPPRLPRPRPRPYCAPRP	-0.277
RRIRARPPRLPRPRPRPYELPRP	-0.101

Sequence	shrunken log2 fold change
RRIRARPPRLPRPRPRPYFAPRP	-0.201
RRIRARPPRLPRPRPRPYFPPRP	-0.418
RRIRARPPRLPRPRPRPYGTPRP	-0.131
RRIRARPPRLPRPRPRPYIGPRP	0.00388
RRIRARPPRLPRPRPRPYINPRP	-0.413
RRIRARPPRLPRPRPRPYKSPRP	-0.441
RRIRARPPRLPRPRPRPYLSPRP	-0.451
RRIRARPPRLPRPRPRPYMSPRP	0.00296
RRIRARPPRLPRPRPRPYMVPRP	-0.583
RRIRARPPRLPRPRPRPYNDPRP	-1.28
RRIRARPPRLPRPRPRPYNRPRP	-0.186
RRIRARPPRLPRPRPRPYPSPRP	-0.0433
RRIRARPPRLPRPRPRPYQDPRP	-0.00221
RRIRARPPRLPRPRPRPYRWPRP	0.0451
RRIRARPPRLPRPRPRPYSDPRP	-0.262
RRIRARPPRLPRPRPRPYSVPRP	-0.248
RRIRARPPRLPRPRPRPYTCPRP	-0.0591
RRIRARPPRLPRPRPRPYTFPRP	-0.444
RRIRARPPRLPRPRPRPYTPPRP	-0.373
RRIRARPPRLPRPRPRPYVFPRP	-0.245

Sequence	shrunken log2 fold change
RRIRARPPRLPRPRPRPYVNPRP	-0.235
RRIRARPPRLPRPRPRPYVSPRP	-0.0383
RRIRARPPRLPRPRPRPYWSPRP	-0.186
RRIRARPPRLPRPRPRPYYQPRP	-0.374
RRIRARPPRLPRPRPRPYYVPRP	-0.169
RRIRCRPPRLPRPRPRPAAPPRP	0.668
RRIRCRPPRLPRPRPRPADDPRP	0.116
RRIRCRPPRLPRPRPRPAEQPRP	0.252
RRIRCRPPRLPRPRPRPAEVPRP	-0.106
RRIRCRPPRLPRPRPRPAHPPRP	0.125
RRIRCRPPRLPRPRPRPAHQPRP	0.133
RRIRCRPPRLPRPRPRPAHYPRP	-0.127
RRIRCRPPRLPRPRPRPAIRPRP	-0.0579
RRIRCRPPRLPRPRPRPALDPRP	0.356
RRIRCRPPRLPRPRPRPALLPRP	0.292
RRIRCRPPRLPRPRPRPALNPRP	0.179
RRIRCRPPRLPRPRPRPALTPRP	0.224
RRIRCRPPRLPRPRPRPAMMPRP	-0.0414
RRIRCRPPRLPRPRPRPAMQPRP	0.0643
RRIRCRPPRLPRPRPRPAPCPRP	0.122
